The results in this text go back to patent US20150259408A1 (PROTHENA BIOSCIENCES, published 2015).

Positions count from the first letter of the chain named.

The target of experiment [1] is recombinant LG4-5 of LAMA4 coated on ELISA plates. Briefly: cell-based or functional assay.
Experiment [2] has as its target laminin 411 (LAMA4 in complex with gamma1 and beta1 chains). Briefly: cell-based or functional assay.
The target in experiment [3] is T1, human LAMA4 LG1-3 fragment displayed on 293 cells (pDisplay) (human, UniProt Q16363 830-1430, limits assumed).
T1 sequence: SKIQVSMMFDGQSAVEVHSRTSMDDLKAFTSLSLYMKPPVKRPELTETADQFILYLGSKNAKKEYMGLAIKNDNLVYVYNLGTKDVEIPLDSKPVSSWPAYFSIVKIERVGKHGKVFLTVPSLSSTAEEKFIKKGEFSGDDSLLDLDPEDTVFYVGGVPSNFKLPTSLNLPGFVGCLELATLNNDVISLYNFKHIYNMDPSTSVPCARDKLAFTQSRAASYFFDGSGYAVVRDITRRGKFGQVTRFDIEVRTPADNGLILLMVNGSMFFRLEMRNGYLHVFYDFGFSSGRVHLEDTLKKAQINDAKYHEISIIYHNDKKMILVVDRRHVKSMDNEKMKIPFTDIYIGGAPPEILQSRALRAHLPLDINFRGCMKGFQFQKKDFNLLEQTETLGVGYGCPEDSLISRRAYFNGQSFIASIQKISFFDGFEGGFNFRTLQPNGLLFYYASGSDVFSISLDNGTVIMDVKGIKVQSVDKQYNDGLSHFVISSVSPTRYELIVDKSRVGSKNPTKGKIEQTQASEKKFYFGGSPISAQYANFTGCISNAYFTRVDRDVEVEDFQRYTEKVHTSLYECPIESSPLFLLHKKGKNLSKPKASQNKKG
Briefly: flow cytometry on 293 cells displaying LAMA4 fragments (pDisplay). As to the method: Monoclonal antibodies against the LG4-5 modules of the G domain of LAMA4 were generated as described in Materials and Methods. The specific binding between the monoclonal antibodies and the LG4-5 modules of the G domain of LAMA4 was confirmed by assessing the monoclonal antibodies' ability to stain LAMA4-fragment-displaying human embryonic kidney 293 cells by flow cytometry. Fluorescent signal was assessed via flow cytometric analyses and plotted as mean fluorescence intensity (MFI) as shown in FIG. 1. A LG1-3-specific LAMA4 antibody was able to bind 293 cells displaying LG1-5 and LG1-3, but not LG4-5 of the LAMA4 protein. Conversely, clones 6C12, 13G10, and 15F7 were able to specifically bind 293 cells displaying LG1-5 and LG4-5, but not LG1-3.
Human LAMA4 G-domains 1-5 and variants were cloned into pDisplay expression construct (Life Technologies) and transiently transfected into 293 cells using standard procedures. Anti-LAMA4 antibodies were incubated with cells for 30 min at 4° C. and followed by anti-mouse-650 for 30 minutes at 4° C. Cells were analyzed for anti-laminin binding by flow cytometry using standard procedures.
Background: In flow cytometry, cells or beads pass a laser one at a time.

Experiment [4] addresses T2, recombinant human His-laminin-α4 (R&D Systems) (human, UniProt Q16363-2 826-1816, limits assumed).
T2 construct: range 826-end (only the start, Q826, is stated); Bought protein; also called Human LAMA4; human His-laminin-α4 fragment starting at Q826; not shown: 6x His tag
T2 sequence (looked up): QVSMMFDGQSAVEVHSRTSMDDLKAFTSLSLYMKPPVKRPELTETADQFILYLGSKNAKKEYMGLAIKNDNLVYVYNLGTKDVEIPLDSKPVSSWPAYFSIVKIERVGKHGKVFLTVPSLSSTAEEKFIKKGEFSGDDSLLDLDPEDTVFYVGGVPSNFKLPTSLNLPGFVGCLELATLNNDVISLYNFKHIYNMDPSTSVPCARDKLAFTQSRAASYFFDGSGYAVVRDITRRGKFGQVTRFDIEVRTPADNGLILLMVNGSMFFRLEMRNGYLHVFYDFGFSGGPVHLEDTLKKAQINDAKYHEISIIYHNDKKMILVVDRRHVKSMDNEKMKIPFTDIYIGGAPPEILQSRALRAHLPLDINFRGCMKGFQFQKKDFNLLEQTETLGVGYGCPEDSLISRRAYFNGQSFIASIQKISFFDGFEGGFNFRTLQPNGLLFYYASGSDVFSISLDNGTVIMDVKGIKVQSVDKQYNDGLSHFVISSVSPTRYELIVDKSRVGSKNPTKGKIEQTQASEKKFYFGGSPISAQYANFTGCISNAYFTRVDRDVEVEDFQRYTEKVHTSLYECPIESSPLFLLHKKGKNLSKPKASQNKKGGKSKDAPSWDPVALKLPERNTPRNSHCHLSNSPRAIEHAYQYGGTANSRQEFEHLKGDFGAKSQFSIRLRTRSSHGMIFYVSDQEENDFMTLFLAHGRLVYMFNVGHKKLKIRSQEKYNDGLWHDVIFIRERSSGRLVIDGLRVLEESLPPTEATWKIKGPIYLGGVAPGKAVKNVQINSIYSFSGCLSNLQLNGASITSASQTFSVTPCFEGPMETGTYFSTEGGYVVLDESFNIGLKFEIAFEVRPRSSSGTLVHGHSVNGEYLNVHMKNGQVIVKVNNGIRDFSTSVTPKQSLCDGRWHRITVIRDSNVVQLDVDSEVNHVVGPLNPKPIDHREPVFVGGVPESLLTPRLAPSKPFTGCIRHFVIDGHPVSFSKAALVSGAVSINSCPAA
Briefly: SPR (Biacore T200); Fab or captured-IgG format not given. On the technique in general: Surface plasmon resonance follows binding to a sensor surface in real time, without labels.

Experiment [5] deals with T3, recombinant mouse His-laminin-α4 (R&D Systems) (mouse, UniProt P97927 826-1816, limits assumed).
T3 construct: range 826-end (only the start, Q826, is stated); Bought protein; also called Murine LAMA4; not shown: 6x His tag
T3 sequence (looked up): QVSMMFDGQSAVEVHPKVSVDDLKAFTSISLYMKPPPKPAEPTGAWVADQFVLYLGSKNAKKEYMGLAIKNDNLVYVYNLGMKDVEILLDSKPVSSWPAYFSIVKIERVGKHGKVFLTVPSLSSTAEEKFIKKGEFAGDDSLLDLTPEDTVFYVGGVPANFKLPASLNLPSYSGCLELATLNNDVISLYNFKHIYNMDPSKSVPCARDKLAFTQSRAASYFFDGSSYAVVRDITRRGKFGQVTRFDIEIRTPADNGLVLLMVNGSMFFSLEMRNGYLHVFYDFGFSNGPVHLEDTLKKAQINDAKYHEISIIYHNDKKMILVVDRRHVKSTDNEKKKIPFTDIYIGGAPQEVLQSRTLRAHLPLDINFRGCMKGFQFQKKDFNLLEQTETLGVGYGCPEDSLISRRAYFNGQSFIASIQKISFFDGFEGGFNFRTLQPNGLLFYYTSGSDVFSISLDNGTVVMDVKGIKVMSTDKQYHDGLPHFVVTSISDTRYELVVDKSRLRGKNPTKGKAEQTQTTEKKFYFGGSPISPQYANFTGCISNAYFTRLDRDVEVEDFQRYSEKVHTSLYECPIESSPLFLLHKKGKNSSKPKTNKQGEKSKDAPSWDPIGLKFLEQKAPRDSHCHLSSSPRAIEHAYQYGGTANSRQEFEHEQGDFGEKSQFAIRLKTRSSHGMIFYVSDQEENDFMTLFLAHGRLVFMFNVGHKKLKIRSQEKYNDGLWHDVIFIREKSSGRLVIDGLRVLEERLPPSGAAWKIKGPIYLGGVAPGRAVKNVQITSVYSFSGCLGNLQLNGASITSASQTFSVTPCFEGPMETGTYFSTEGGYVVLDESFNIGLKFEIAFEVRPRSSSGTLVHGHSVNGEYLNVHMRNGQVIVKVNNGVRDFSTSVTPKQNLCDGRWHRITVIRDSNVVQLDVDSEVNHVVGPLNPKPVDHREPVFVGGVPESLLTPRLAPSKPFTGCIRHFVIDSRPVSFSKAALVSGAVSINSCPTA
The experiment is described as above.

B1: mouse monoclonal antibody 15F7 (antibody, V domains shown)
VH: QVQLQQSGTELARPGAAVKLSCKASGYTFTSYGLSWVKQRAGQGLEWIGEIFPRSGNTYYNEKFKGKATLTADKSSSTAYMELRSLTSEDSAVYFCARGVRSPGAMDYWGQGTSVTVSS
VL: DIQMTQSSSSFSVSLGDRVTITCKASEDIYNRLAWYQQKPGNAPRLLISGATSLETGVPSRFSGSGSGKDYTLSITSLQTEDVATYYCQQYWSIPYTFGGGTNLEIKR
notes: Mouse hybridoma antibody; Mouse IgG1 is used as its control; also called m15F7; LG4-5-specific antibody 15F7
By Kd is commonly meant the equilibrium constant for the complex coming apart. In general, koff refers to a measure of how fast the partners let go of each other. The kon is the second-order rate constant of association. Consider B1, for which the “inhibition of LAMA4-mediated WM-266-4 human melanoma cell adhesion (antibody at 20 ug/ml)” value (“inhibition … (antibody at 20 ug/ml)” below) in experiment [1] was at least 35%. The “inhibition of laminin-411-induced pAkt activation (pAkt/Akt ratio by immunoblot, WM266.4 cells; 20 ug/ml 15F7, 10 ug/ml laminin 411)” value in experiment [2] was about 50%. Further, in experiment [3], the binding result was “no binding”. Moreover, in experiment [4], the Kd was determined as 0.684 nM, the koff turned out to be 0.000781 s⁻¹ and the kon amounted to 1.14e+06 M⁻¹ s⁻¹. Besides, in experiment [5], the Kd worked out at 0.627 nM, the dissociation rate constant (koff) stood at 0.000658 s⁻¹ and the kon was 1.05e+06 M⁻¹ s⁻¹.

B2: mouse monoclonal antibody 13G10 (antibody, V domains shown)
VH: QVQLQQSGAELARPGASVKLSCKASGYTFTNYGISWVKQRTGQGLEWIGAIYPRSGNTYYNEKFKGKATLTADKSSSTAYMELRSLTSEDSAVYFCARERDYGSSYALDYWGQGTSVTVSS
VL: B1 VL with S63T, I94P, Y96R, N103K
Turning to B2, the “inhibition … (antibody at 20 ug/ml)” value in experiment [1] was at least 35%. In addition, the binding result in experiment [3] is recorded as “no binding”. Moreover, in experiment [4], the dissociation constant Kd is 24.4 nM, the off-rate constant (koff) worked out at 0.0074 s⁻¹ and the on-rate constant (kon) worked out at 302000 M⁻¹ s⁻¹. Also, in experiment [5], the dissociation constant (Kd) worked out at 11.9 nM, the koff is 0.00449 s⁻¹ and the association rate constant (kon) amounted to 378000 M⁻¹ s⁻¹.

B3: mouse monoclonal antibody 6C12 (antibody, V domains shown)
VH: QVQLQQPGAELVKPGASVKLSCKASGYTFTTYWMHWVKQRPGQGPEWIGMIHPYSGAINYNEKFKSKATLTVDKSSSTAYMQLSSLTSEDSAVYYCVKQLRLLYYFDYWGQGTTLTVSS
VL: DIVMTQSPSSLTVTAGEKVTMSCKSRQSLLNSGNQKNYLTWYQQKPGQPPKVLIYWASTRESGVPDRFTGSGSGTDFTLTISSVQAEDLAVYYCQNDYSYPLTFGAGTKLELKR
Consider B3, for which, in experiment [1], the “inhibition … (antibody at 20 ug/ml)” value is at least 35%. In experiment [3], the binding result was “no binding”. Further, in experiment [4], the Kd was determined as 3.11 nM, the dissociation rate constant (koff) came out at 0.00102 s⁻¹ and the kon worked out at 328000 M⁻¹ s⁻¹. In experiment [5], the Kd amounted to 2.38 nM, the dissociation rate constant (koff) was 0.00111 s⁻¹ and the kon turned out to be 469000 M⁻¹ s⁻¹.
